Results reported in article PMC11905138.

Columns and labels:
Details in all cases: reference: Flag-PKM2 wild type; sites Y105
IQGAP1 [1] = biological target: IQGAP1 (UniProt P46940); assay: anti-Flag co-IP, IQGAP1 blot
IQGAP1 [2] = biological target: IQGAP1 (UniProt P46940); assay: anti-Flag IP, LC-MS/MS
TSG101 = TSG101 (UniProt Q99816); assay: anti-Flag co-IP, TSG101 blot

Measured: binding against the reference

PKM2 (pyruvate kinase M2) (from UniProt P14618) Flag-PKM2 Y105F
lost: all assays above
